We go through three molecules from paper PMC7056357.

Where two headings read alike, the source gives them in different places.

One assay deals with CCR5-mTFP1 (UniProt P51681).
Another assay concerns the target CD4-mRFP (human) (UniProt P01730). The assay is described as follows: multicolour TIRF-dSTORM with interaction factor analysis.
Assay [1] deals with T1, CXCR4-mTFP1 (human), P61073.
T1 chain: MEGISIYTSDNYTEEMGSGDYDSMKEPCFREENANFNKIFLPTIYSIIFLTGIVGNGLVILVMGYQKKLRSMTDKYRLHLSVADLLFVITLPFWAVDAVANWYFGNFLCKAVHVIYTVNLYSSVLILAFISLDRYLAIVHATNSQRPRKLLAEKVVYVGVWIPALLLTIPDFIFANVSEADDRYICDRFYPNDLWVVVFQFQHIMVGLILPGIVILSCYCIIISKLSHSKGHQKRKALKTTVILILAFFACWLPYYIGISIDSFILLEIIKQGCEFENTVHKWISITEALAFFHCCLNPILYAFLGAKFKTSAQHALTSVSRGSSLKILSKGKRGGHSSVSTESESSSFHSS
The note with it: remark: other sources report otherwise.

The target is the same in assay [2]. As to the kind of experiment: number and brightness. The note with it: remark: other sources report otherwise.
The target of assay [3] is T2, CXCR4-eYFP (human), P61073.
T2 chain: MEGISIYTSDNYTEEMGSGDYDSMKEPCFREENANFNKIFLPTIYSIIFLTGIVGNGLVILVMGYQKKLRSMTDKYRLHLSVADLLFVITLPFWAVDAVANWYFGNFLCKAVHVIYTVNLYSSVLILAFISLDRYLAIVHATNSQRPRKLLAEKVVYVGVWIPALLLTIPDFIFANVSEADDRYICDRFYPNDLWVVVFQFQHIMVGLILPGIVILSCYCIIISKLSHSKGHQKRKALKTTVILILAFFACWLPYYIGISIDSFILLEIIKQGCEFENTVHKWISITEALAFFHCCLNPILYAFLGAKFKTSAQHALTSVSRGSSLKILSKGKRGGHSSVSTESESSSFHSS
The assay is described as follows: multicolour TIRF-dSTORM with interaction factor analysis. The note with it: remark: other sources report otherwise.

Chain of UniProt P51681 (P51681 whole entry): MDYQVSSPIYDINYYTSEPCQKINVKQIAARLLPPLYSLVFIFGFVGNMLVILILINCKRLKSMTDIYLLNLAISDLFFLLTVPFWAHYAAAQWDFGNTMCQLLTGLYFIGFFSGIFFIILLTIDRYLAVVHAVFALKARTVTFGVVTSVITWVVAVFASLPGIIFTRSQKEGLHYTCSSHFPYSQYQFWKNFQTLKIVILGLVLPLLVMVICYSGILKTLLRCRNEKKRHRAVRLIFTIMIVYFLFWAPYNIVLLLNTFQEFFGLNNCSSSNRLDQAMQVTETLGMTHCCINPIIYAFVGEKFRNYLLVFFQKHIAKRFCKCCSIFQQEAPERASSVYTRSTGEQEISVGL

As to “HIV-1 JR-FL Env on HIV_(JR-FL) virions (complex)”, the CCR5 molecules bound to a single Env trimer in the assay with CCR5-mTFP1 amounted to 2. For the same molecule, in the assay with CD4-mRFP (human), the probability of 3 CD4 molecules engaged with 1 Env spike came out at 0.36 and the probability of 4 CD4 molecules engaged with 1 Env spike is 0.1.

B1: CXCR4-mTFP1, P61073 1-352 (receptor)
chain: MEGISIYTSDNYTEEMGSGDYDSMKEPCFREENANFNKIFLPTIYSIIFLTGIVGNGLVILVMGYQKKLRSMTDKYRLHLSVADLLFVITLPFWAVDAVANWYFGNFLCKAVHVIYTVNLYSSVLILAFISLDRYLAIVHATNSQRPRKLLAEKVVYVGVWIPALLLTIPDFIFANVSEADDRYICDRFYPNDLWVVVFQFQHIMVGLILPGIVILSCYCIIISKLSHSKGHQKRKALKTTVILILAFFACWLPYYIGISIDSFILLEIIKQGCEFENTVHKWISITEALAFFHCCLNPILYAFLGAKFKTSAQHALTSVSRGSSLKILSKGKRGGHSSVSTESESSSFHSS
With B1, the stoichiometry N in assay [1] and in assay [2] was 2 each time.

B2: CXCR4-eYFP, P61073 1-352 (receptor)
chain: MEGISIYTSDNYTEEMGSGDYDSMKEPCFREENANFNKIFLPTIYSIIFLTGIVGNGLVILVMGYQKKLRSMTDKYRLHLSVADLLFVITLPFWAVDAVANWYFGNFLCKAVHVIYTVNLYSSVLILAFISLDRYLAIVHATNSQRPRKLLAEKVVYVGVWIPALLLTIPDFIFANVSEADDRYICDRFYPNDLWVVVFQFQHIMVGLILPGIVILSCYCIIISKLSHSKGHQKRKALKTTVILILAFFACWLPYYIGISIDSFILLEIIKQGCEFENTVHKWISITEALAFFHCCLNPILYAFLGAKFKTSAQHALTSVSRGSSLKILSKGKRGGHSSVSTESESSSFHSS
B2: the stoichiometry N in assay [3] is 2.
